Assay results taken from the supplement of paper PMC7125110.
± gives the standard error. Variants at the floor of the assay were thinned out.

B1: glmS ribozyme (parent)
chain: AUAAAAGCGCCAGAACUACAGAAAUGUAGUUGACGAGGAGGAGGUUUAUCGAAUUUUCGGCGGAUGCCUCCAAA

Key:
Conditions in all cases: with glucosamine-6-phosphate
[1] = variants of: B1; experiment: self-cleavage kobs at 160 uM GlcN6P; higher = faster cleavage; RNA array
In short: (§1)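 Glucosamine-6-phosphate, from 40 μM to 10 mM in HEPES/KCl/Mg(OAc)2 buffer, was flowed over sequenced MiSeq chips carrying barcoded ribozyme variants transcribed in situ by E. coli RNA polymerase. A hybridised Cy3 probe tracked the variants at 37 °C as tiles were imaged over ~14 h. kobs, kcat and KM were obtained by fitting normalised per-tile medians to exponential decays and then applying weighted Michaelis–Menten fits across concentrations.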

[2] = variants of: B1; experiment: self-cleavage kobs at 640 uM GlcN6P; higher = faster cleavage; RNA array
In short: as §1

[3] = variants of: B1; experiment: self-cleavage kobs at 2500 uM GlcN6P; higher = faster cleavage; RNA array
In short: as §1

[4] = variants of: B1; experiment: self-cleavage kobs at 10000 uM GlcN6P; higher = faster cleavage; RNA array
In short: as §1

Variant | self-cleavage kobs at 160 uM GlcN6P [1] | self-cleavage kobs at 640 uM GlcN6P [2] | self-cleavage kobs at 2500 uM GlcN6P [3] | self-cleavage kobs at 10000 uM GlcN6P [4]
G40A C61U C68G C70G C71G | < 1e-05 s⁻¹ | < 1e-05 s⁻¹ |  | 
U2C G9U U56A C71U | < 1e-05 s⁻¹ | < 1e-05 s⁻¹ |  | 
G37C G43C U47C | < 1e-05 s⁻¹ |  | < 1e-05 s⁻¹ | 
A12C U56A C67A U69G | 8.14e-05 ± 2.1e-05 s⁻¹ | 0.00447 ± 0.0018 s⁻¹ | 0.000144 ± 4.7e-05 s⁻¹ | 
G13C G40U G59C | < 1e-05 s⁻¹ | < 1e-05 s⁻¹ | < 1e-05 s⁻¹ | 
C16G A36U | < 1e-05 s⁻¹ | < 1e-05 s⁻¹ | < 1e-05 s⁻¹ | 
G9A U46G U57A | < 1e-05 s⁻¹ | < 1e-05 s⁻¹ | < 1e-05 s⁻¹ | 
G40U G60A U65G | < 1e-05 s⁻¹ | < 1e-05 s⁻¹ | < 1e-05 s⁻¹ | 
U2C C16G A53C | 4.66e-05 ± 1.6e-05 s⁻¹ | 0.000137 ± 1.9e-05 s⁻¹ | 0.000285 ± 4.6e-05 s⁻¹ | 
G26U G29A U54A C70U C71U | 0.000121 ± 3.5e-05 s⁻¹ |  | 5.37e-05 ± 2.3e-05 s⁻¹ | 
A14C A36C U65G | < 1e-05 s⁻¹ | < 1e-05 s⁻¹ | < 1e-05 s⁻¹ | 
U30C G40U U65G | < 1e-05 s⁻¹ |  |  | 
G7U C10U G35A C68G | 0.000125 ± 5.5e-05 s⁻¹ |  |  | 0.000284 ± 0.00012 s⁻¹
U30G U47G | 0.000169 ± 4.9e-05 s⁻¹ | 0.00043 ± 0.00012 s⁻¹ | 0.00098 ± 0.0002 s⁻¹ | 
C8A A39G A52U | < 1e-05 s⁻¹ | < 1e-05 s⁻¹ | < 1e-05 s⁻¹ | 
A15G U55A G62U G63C | < 1e-05 s⁻¹ | < 1e-05 s⁻¹ |  | 
A12G G35U A42C A48C U57C | < 1e-05 s⁻¹ |  |  | 
C8U U31G G44U C71G | < 1e-05 s⁻¹ | < 1e-05 s⁻¹ |  | 
C11U G32C A42G G59U | < 1e-05 s⁻¹ |  | < 1e-05 s⁻¹ | 
C11A C34U G60U C71A | < 1e-05 s⁻¹ |  | < 1e-05 s⁻¹ | 
A33C C50A C71G | < 1e-05 s⁻¹ |  |  | 
C16G G29C A33U A48C | < 1e-05 s⁻¹ | < 1e-05 s⁻¹ |  | 
G44A A48G G51U G59A | < 1e-05 s⁻¹ |  | < 1e-05 s⁻¹ | 
G44U G62A | < 1e-05 s⁻¹ | < 1e-05 s⁻¹ | < 1e-05 s⁻¹ | 
G41A C68U C70U | 0.000155 ± 3.4e-05 s⁻¹ | 0.00049 ± 8.2e-05 s⁻¹ | 0.00138 ± 0.00025 s⁻¹ | 
A33U A36C G43A C70G | < 1e-05 s⁻¹ | < 1e-05 s⁻¹ | < 1e-05 s⁻¹ | 
G37U G38C C71U | < 1e-05 s⁻¹ | < 1e-05 s⁻¹ |  | 

Variant | self-cleavage kobs at 160 uM GlcN6P [1] | self-cleavage kobs at 640 uM GlcN6P [2] | self-cleavage kobs at 2500 uM GlcN6P [3] | self-cleavage kobs at 10000 uM GlcN6P [4]
G9U A53C | < 1e-05 s⁻¹ | < 1e-05 s⁻¹ |  | < 1e-05 s⁻¹
G9A C50U G51U A52U | < 1e-05 s⁻¹ |  |  | 
C34U G37U | < 1e-05 s⁻¹ | < 1e-05 s⁻¹ | < 1e-05 s⁻¹ | < 1e-05 s⁻¹
A33U A36U | < 1e-05 s⁻¹ | < 1e-05 s⁻¹ | < 1e-05 s⁻¹ | < 1e-05 s⁻¹
G7A G38U G44C U49A A53U U56C | < 1e-05 s⁻¹ |  |  | 
C10A G32C G38C | < 1e-05 s⁻¹ |  | < 1e-05 s⁻¹ | 
A6G A53C G63A A64G | < 1e-05 s⁻¹ | < 1e-05 s⁻¹ |  | 
A52C G59A | < 1e-05 s⁻¹ | < 1e-05 s⁻¹ | < 1e-05 s⁻¹ | < 1e-05 s⁻¹
G9A C61G | < 1e-05 s⁻¹ | < 1e-05 s⁻¹ |  | 
A36U G43A A52U G63A C67A | < 1e-05 s⁻¹ |  |  | 
G37U G44A G66U | < 1e-05 s⁻¹ |  |  | 
G38A A39C G40U G43A U49G U54C | < 1e-05 s⁻¹ | < 1e-05 s⁻¹ | < 1e-05 s⁻¹ | 
C10A G13C C16U G51C | < 1e-05 s⁻¹ |  |  | 
U31G A39C U45A | 0.000229 ± 6.4e-05 s⁻¹ | 0.000642 ± 0.0001 s⁻¹ | 0.00161 ± 0.00025 s⁻¹ | 
G44U U49A U54A G62U | < 1e-05 s⁻¹ | < 1e-05 s⁻¹ | < 1e-05 s⁻¹ | 
A12G A36U C50G A64U C68U | 6.37e-05 ± 2.6e-05 s⁻¹ |  |  | 
A15U A39C C58A C70G | < 1e-05 s⁻¹ |  |  | 
C10A G41C U46G C68U | < 1e-05 s⁻¹ | < 1e-05 s⁻¹ | < 1e-05 s⁻¹ | 
A14G U30A G32A C68A | < 1e-05 s⁻¹ |  |  | 
G29U G44C | < 1e-05 s⁻¹ |  |  | 
G37U G44A A52U A53U | < 1e-05 s⁻¹ | < 1e-05 s⁻¹ | < 1e-05 s⁻¹ | 
C8G C11G U54A | < 1e-05 s⁻¹ |  | < 1e-05 s⁻¹ | 
G7A G13A G37C U46G | < 1e-05 s⁻¹ |  | < 1e-05 s⁻¹ | 
C16U A53G U54C | 0.000683 ± 0.00013 s⁻¹ | 0.00193 ± 0.00028 s⁻¹ | 0.00421 ± 0.00075 s⁻¹ | 
C10U A39U C67G | < 1e-05 s⁻¹ | < 1e-05 s⁻¹ |  | 
C8A C34U G40A A52U | < 1e-05 s⁻¹ | < 1e-05 s⁻¹ | < 1e-05 s⁻¹ | < 1e-05 s⁻¹
G37C G41C | < 1e-05 s⁻¹ | < 1e-05 s⁻¹ | < 1e-05 s⁻¹ | 
